PMC9427789

Biological target: His-SUMO-FGF23 (N-terminal domain of human FGF23, wild type) (human) (UniProt Q9GZV9)
Test: ELISA

His-SUMO-FGF23 (N-terminal domain of human FGF23, wild type) (human), sequence (Q9GZV9 25-204): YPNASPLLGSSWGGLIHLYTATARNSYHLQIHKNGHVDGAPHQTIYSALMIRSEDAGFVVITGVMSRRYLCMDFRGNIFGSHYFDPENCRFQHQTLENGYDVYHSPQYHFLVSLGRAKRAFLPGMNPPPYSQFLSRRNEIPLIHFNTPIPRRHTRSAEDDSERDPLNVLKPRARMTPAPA

Substance	Kd [pM]
Burosumab VL:T69D	860
Burosumab VL:S67Y	730
Burosumab VL:S52D	700
